Where a chain is given by its changes, count along the chain named. Names may count otherwise. Marks after values point to notes of the source that are not given here.

The labels stand for the following.
B1: mutant III (Oenococcus oeni PSU-1; F133K) (protein)
chain: MNKLFLPKNFLWGGAVAANQLEGGWDQDNKGLSVADIMTAGANGKAREITDGIVKGKYYPNHEAIDFYHRYKEDIKLFAEMGFKCFRTSIAWTRIFPNGDEEQPNEAGLKFYDQLFDECHKYGIEPVITLSHKEMPYHLVKAYGGWRNRKLIDFFVRFAKTVFKRYKDKVSYWMTFNEIDNQTDYTNRFLMATNSGLILKNDQSDAESLMYQAAHYELVASALAVKLGHSINPNFQIGCMINMTPVYPASSKPADIFQAEKAMQRRYWFSDIHALGKYPENMEVFLKQNNFRPDITSEDRIVLKEGTVDYIGLSYYNSMTVQSKESNPGFHFIGPELTVDNPNVEKSDWGWPIDPLGLRYSLNWLADHYHKPLFIVENGLGAYDKVENSQQIHDPYRIAYLKAHIQAMIDAVQEDGVKVIGYTPWGCIDLVSAGTGQMSKRYGFIYVDKDDQGKGSLKRLKKDSFFWYQQVIQSNGSQLD
notes: purified recombinant, pMG36e plasmid, expressed in Lactococcus lactis MG1363
B2: wild-type enzyme (Oenococcus oeni PSU-1) (protein)
chain: B1 chain with K133F
notes: purified recombinant BGL0224 (MT330371.1), plasmid pMG36e-0224, expressed in Lactococcus lactis MG1363
B3: mutant IV (Oenococcus oeni PSU-1; N181R) (protein)
chain: B1 chain with K133F, N181R
notes: as for B1

Substrate in one data set: O=[N+]([O-])c1ccc(O[C@@H]2OC[C@@H](O)[C@H](O)[C@H]2O)cc1
In words: p-Nitrophenol release read at 420 nm after Na2CO3 stop, 0.1-25 mM substrate in 20 mM sodium phosphate buffer at each enzyme's optimum (wild type pH 5.0, 50 °C; mutant III pH 3.5, 50 °C; mutant IV pH 4.0, 45 °C), Hill function fit in Origin. Type of data set: biochemical. On the procedure:
(§1) 3.9. Enzymatic Reaction Kinetics and Substrate Specificity
(§2) The determination of enzymatic reaction kinetics was conducted according to Zhang et al., with slight modifications. Different concentrations (0.1 mM, 0.2 mM, 0.5 mM, 1.0 mM, 2.0 mM, 5.0 mM, 8.0 mM, 10 mM, 12 mM, 15 mM, 20 mM and 25 mM) of p-NPG substrate solutions were prepared with 20 mM sodium phosphate buffer. Then, 100 μg of enzyme lyophilized powder were added to 500 μL of p-NPG solutions at different concentrations. Next, this was reacted for 0 min, 5 min, 10 min, 15 min, 20 min, 25 min and 30 min under optimal reaction conditions, and at the end of each set of reactions, 500 μL 1 M of Na2CO3 solution were added to terminate the reaction. The absorbance value of each reaction system was measured at 420 nm and the amount of p-NP corresponding to different reaction times at specific substrate concentrations was calculated from the standard curve. The kinetic constants (Vmax and Km) of each reaction system were determined by fitting using the Hill function in the class of Growth/Inverse Curve for nonlinear fitting in the Origin Pro 8.0 software.
(§3) All experiments were set up in three parallels. The activities of the wild-type enzyme and five mutants were analyzed by ANOVA at the significance level of p < 0.05 using the SPSS 26.0 software, and multiple comparisons of the means were performed using Duncan’s method. The kinetic parameters of the enzymatic reactions for the wild-type enzyme and mutants catalyzing four substrates were subjected to independent sample t-tests at a significance level of p < 0.05, and the data were expressed as mean ± standard deviation. The experimental results were plotted using the Origin 2021 software.
For orientation: Vmax means the top rate of the reaction or transport when substrate is in excess. The kcat is the maximal rate divided by the concentration of active sites. In general, kcat/Km refers to the turnover number divided by the Michaelis constant. B1: the Km was 1.24 ± 0.13 ^b mM, the Vmax was 337 ± 4.61 µM/min/mg, the kcat came to 310 ± 4.24 s⁻¹ and the kcat/Km stood at 250000 M⁻¹ s⁻¹.
The like results for B2 were, in that order, 1.31 ± 0.22 ^c mM, 308 ± 3.64 µM/min/mg, 283 ± 3.34 s⁻¹ and 216000 M⁻¹ s⁻¹.
Taken in the same sequence, the figures for B3 were 1.17 ± 0.16 ^a mM, 359 ± 3.88 µM/min/mg, 330 ± 3.57 s⁻¹ and 282000 M⁻¹ s⁻¹.

Substrate in a further data set: O=[N+]([O-])c1ccc(O[C@@H]2O[C@H](CO)[C@@H](O)[C@H](O)[C@H]2O)cc1
The data set is described as above. The data set is classed as biochemical. The method, then:
as §1, §2, §3
Take B1: the Km is recorded as 0.27 ± 0.05 ^b mM, the Vmax turned out to be 533 ± 6.51 µM/min/mg, the kcat turned out to be 490 ± 5.98 s⁻¹ and the kcat/Km worked out at 1.81e+06 M⁻¹ s⁻¹.
Turning to B2, the Km is 0.33 ± 0.03 ^c mM, the maximum rate (Vmax) turned out to be 363 ± 4.13 µM/min/mg, the kcat turned out to be 334 ± 3.8 s⁻¹ and the kcat/Km came out at 1.01e+06 M⁻¹ s⁻¹.
Taken in the same sequence, the figures for B3 were 0.22 ± 0.03^a mM, 841.6 ± 3.82 µM/min/mg, 773.6 ± 3.52 s⁻¹ and 3.52e+06 M⁻¹ s⁻¹.

Substrate in another data set: O=[N+]([O-])c1ccc(O[C@@H]2O[C@H](CO)[C@H](O)[C@H](O)[C@H]2O)cc1
The description is as above. The data set is classed as biochemical. On the procedure:
as §1, §2, §3
Take B1: the Km is 0.52 ± 0.17 ^a mM, the Vmax is 349 ± 4.83 µM/min/mg, the kcat stood at 321 ± 4.44 s⁻¹ and the kcat/Km turned out to be 617000 M⁻¹ s⁻¹.
Regarding B2, the Km was 0.81 ± 0.16 ^b mM, the maximal velocity (Vmax) amounted to 231 ± 5.71 µM/min/mg, the kcat is 212 ± 5.25 s⁻¹ and the kcat/Km was found to be 262000 M⁻¹ s⁻¹.
Taken in the same sequence, the figures for B3 were 0.87 ± 0.24 ^c mM, 257 ± 5.47 µM/min/mg, 237 ± 5.03 s⁻¹ and 272000 M⁻¹ s⁻¹.

Substrate in a further data set: O=[N+]([O-])c1ccc(O[C@H]2O[C@H](CO)[C@@H](O)[C@H](O)[C@H]2O)cc1
The data set is described as above. Type of data set: biochemical. On the procedure: as §1, §2, §3
For the protein B1, the Km is 1.19 ± 0.23 ^b mM, the Vmax came to 25.8 ± 2.06 µM/min/mg, the kcat was 23.7 ± 1.89 s⁻¹ and the kcat/Km turned out to be 19900 M⁻¹ s⁻¹.
The like results for B2 were, in that order, 1.07 ± 0.20 ^a mM, 29.6 ± 1.83 µM/min/mg, 27.2 ± 1.68 s⁻¹ and 25400 M⁻¹ s⁻¹.
Taken in the same sequence, the figures for B3 were 1.27 ± 0.19 ^c mM, 19.9 ± 1.98 µM/min/mg, 18.4 ± 1.82 s⁻¹ and 14400 M⁻¹ s⁻¹.
